B1: C8orf76 (parent)
chain: YCAKLCEPQWFYEETESSDDVEVL
B2: PBXIP1 (parent)
chain: FGEDGIFRHDRLRFRDFVDALEDS

Variants of: B1
Assay: protein stability index of a GFP-peptide fusion (GPS, HEK-293T) (PSI 1-6); higher = more stable
Conditions: c terminus: a fixed tail appended
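Further: lentivirally expressed fusions sorted by FACS into six bins by GFP to DsRed ratio, PSI derived from sequencing read proportions per bin multiplied by bin number.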

Variant | protein stability index
YCAKLCEPQWFYEETESSDDVEVV | 2.31
YCAKLCEPQWFYEETESSDDVEVQ | 1.86
YCAKLCEPQWFYEETESSDDVEVW | 1.85
YCAKLCEPQWFYEETESSDDVEVP | 2.69
YCAKLCEPQWFYEETESSDDVEVR | 2.78
YCAKLCEPQWFYEETESSDDVEVE | 2.62
YCAKLCEPQWFYEETESSDDVEVN | 2.36
YCAKLCEPQWFYEETESSDDVEVT | 2.11
YCAKLCEPQWFYEETESSDDVEVH | 2.15
YCAKLCEPQWFYEETESSDDVEVI | 2.73
YCAKLCEPQWFYEETESSDDVEVS | 2.66
YCAKLCEPQWFYEETESSDDVEVG | 2.54
YCAKLCEPQWFYEETESSDDVEVM | 2.65
YCAKLCEPQWFYEETESSDDVEVK | 3
YCAKLCEPQWFYEETESSDDVEVY | 1.76
YCAKLCEPQWFYEETESSDDVEVC | 2.9
YCAKLCEPQWFYEETESSDDVEVF | 2.43

Variant | protein stability index
YCAKLCEPQWFYEETESSDDVEVA | 2.45
YCAKLCEPQWFYEETESSDDVEVD | 2.56
YCAKLCEPQWFYEETESSDDVEFL | 2.45
YCAKLCEPQWFYEETESSDDVESL | 2.53
YCAKLCEPQWFYEETESSDDVEML | 2.48
YCAKLCEPQWFYEETESSDDVEQL | 2.8
YCAKLCEPQWFYEETESSDDVENL | 3.18
YCAKLCEPQWFYEETESSDDVETL | 2.17
YCAKLCEPQWFYEETESSDDVEKL | 1.96
YCAKLCEPQWFYEETESSDDVEPL | 2.87
YCAKLCEPQWFYEETESSDDVEHL | 2.62
YCAKLCEPQWFYEETESSDDVEYL | 2.78
YCAKLCEPQWFYEETESSDDVEWL | 1.98
YCAKLCEPQWFYEETESSDDVEIL | 2.08
YCAKLCEPQWFYEETESSDDVELL | 2.05
YCAKLCEPQWFYEETESSDDVERL | 2.44
YCAKLCEPQWFYEETESSDDVEGL | 2.39

Variants of: B2
Assay: as above
Conditions: c terminus: a fixed tail appended

Variant | protein stability index
FGEDTIFRHDRLRFRDFVDALEDS | 2.88
FGEDQIFRHDRLRFRDFVDALEDS | 3.23
FGEDIIFRHDRLRFRDFVDALEDS | 2.86
FGEDHIFRHDRLRFRDFVDALEDS | 3.17
FGEDLIFRHDRLRFRDFVDALEDS | 2.54
FGEDCIFRHDRLRFRDFVDALEDS | 2.67
FGEDMIFRHDRLRFRDFVDALEDS | 3.23
FGEDGILRHDRLRFRDFVDALEDS | 3.13
FGEDGICRHDRLRFRDFVDALEDS | 2.95
FGEDGIPRHDRLRFRDFVDALEDS | 3.88
FGEDGIHRHDRLRFRDFVDALEDS | 3.91
FGEDGIARHDRLRFRDFVDALEDS | 3.42
FGEDGIVRHDRLRFRDFVDALEDS | 3.72
FGEDGINRHDRLRFRDFVDALEDS | 4.02
FGEDGIFRHDRLRFRDFVEALEDS | 2.6
FGEDGIFRHDRLRFRDFVAALEDS | 2.59
FGEDGIFRHDRLRFRDFVWALEDS | 2.18
FGEDGIFRHDRLRFRDFVSALEDS | 2.4
FGEDGIFRHDRLRFRDFVIALEDS | 1.91
FGEDGIFRHDRLKFRDFVDALEDS | 2.85
FGEDGIFRHDRLPFRDFVDALEDS | 3.35
FGEDGIFRHDRLCFRDFVDALEDS | 2.73
FGEDGIFRHDRLVFRDFVDALEDS | 2.72
FGEDGIFRHDRLMFRDFVDALEDS | 2.79
FGEDGIFRHDRLRFRDFVDILEDS | 2.28
FGEDGIFRHDRLRFRDFVDCLEDS | 3.05

Variant | protein stability index
FGEDGIFRHDRLRFRDFVDYLEDS | 2.11
FGEDGIFRHDRLRFRDFVDALADS | 2
FGEDGIFRHDRLRFRDFVDALKDS | 2.08
FGEDGIFRHDRLRFRDFVDALGDS | 2.05
FGEDGIFRHDRLRFRDFVDALMDS | 1.89
FGEDGIFRHDRLRFRDFVDALPDS | 2.81
FGEDGIFRHDRLRFRDFVDALCDS | 1.93
FGEDGIFRHDRLRFRDFVDALNDS | 2.56
FGEDGIFRHDRLRFRDFVDALDDS | 2.26
FGEDGIFRHDRLRFRDFVDALEDT | 2.85
FGEDGIFRHDRLRFRDFVDALEDH | 2.66
FGEDGIFRHDRLRFRDFVDALEDL | 2.32
FGEDGIFRHDRLRFRDFVDALEDK | 3.08
FGEDGIFRHDRLRFRDFVDALEDI | 2.29
FGEDGIFRHDRLRFRDFVDALEDE | 2.24
FGEDGIFRHDRLRFRDFVDALEDV | 2.43
FGEDGIFRHDRLRFRDFVDALEDW | 1.93
FGEDGIFRHDRLRFRDFVDALEDQ | 2.74
FGEDGIFRHDRLRFRDFVDALEDG | 2.32
FGEDGIFRHDRLRFRDFVDALEDD | 3.5
FGEDGIFPHDRLRFRDFVDALEDS | 3.8
FGEDGIFAHDRLRFRDFVDALEDS | 3.29
FGEDGIFHHDRLRFRDFVDALEDS | 2.65
FGEDGIFWHDRLRFRDFVDALEDS | 2.05
FGEDGIFLHDRLRFRDFVDALEDS | 2.55
FGEDGIFMHDRLRFRDFVDALEDS | 3.06

Variant | protein stability index
FGEDGIFNHDRLRFRDFVDALEDS | 3.16
FGEDGIFYHDRLRFRDFVDALEDS | 2.46
FGEDGIFRNDRLRFRDFVDALEDS | 3.28
FGEDGIFRFDRLRFRDFVDALEDS | 2.26
FGEDGIFRMDRLRFRDFVDALEDS | 2.73
FGEDGIFRQDRLRFRDFVDALEDS | 2.42
FGEDGIFRRDRLRFRDFVDALEDS | 2.39
FGEDGIFRIDRLRFRDFVDALEDS | 2.41
FGEDGIFRHDRLRFRDFVDALEWS | 1.84
FGEDGIFRHDRLRFRDFVDALEYS | 2.62
FGEDGIFRHDRLRFRDFVDALEGS | 3.02
FGEDGIFRHDRLRFRDFVDALEHS | 2.34
FGEDGIFRHDRLRFRDFVDALEES | 2.61
FGEDGIFRHDRLRFRDFVDALEAS | 2.22
FGEDGIFRHDRLRFRDFVDALEQS | 2.82
FGTDGIFRHDRLRFRDFVDALEDS | 2.28
FGLDGIFRHDRLRFRDFVDALEDS | 2.44
FGQDGIFRHDRLRFRDFVDALEDS | 2.91
FGKDGIFRHDRLRFRDFVDALEDS | 2.52
FGHDGIFRHDRLRFRDFVDALEDS | 2.89
FGEDGIFRHDRLRCRDFVDALEDS | 1.99
FGEDGIFRHDRLRKRDFVDALEDS | 3.38
FGEDGIFRHDRLRLRDFVDALEDS | 2.96
FGEDGIFRHDRLRWRDFVDALEDS | 2.2
FGEDGIFRHDRLRERDFVDALEDS | 3.86
FGEDGIFRHDRLRARDFVDALEDS | 3.43

Variant | protein stability index
FGEDGIFRHDRLRFRDFVDASEDS | 3.24
FGEDGIFRHDRLRFRDFVDAWEDS | 2.57
FGEDGIFRHDRLRFRDFVDAEEDS | 3.67
FGEDGIFRHDRLRFRDFVDATEDS | 3.13
FGEDGIFRHDRLRFPDFVDALEDS | 3.36
FGEDGIFRHDRLRFCDFVDALEDS | 2.79
FGEDGIFRHDRLRFGDFVDALEDS | 3.41
FGEDGIFRHDRLRFEDFVDALEDS | 3.61
FGEDGIFRHDRLRFLDFVDALEDS | 2.48
FGEDGIFRHDRLRFTDFVDALEDS | 2.44
FGEDGIFRHDRLRFRIFVDALEDS | 2.06
FGEDGIFRHDRLRFRQFVDALEDS | 2.42
FGEDGIFRHDRLRFRRFVDALEDS | 2.36
FGEDGIFRHDRLRFRAFVDALEDS | 2.41
FGEDGIFRHDRLRFRKFVDALEDS | 1.99
FGEDGIFRHDRLRFRVFVDALEDS | 2.43
FGEDGIFRHDRLRFRWFVDALEDS | 1.85
FGEDGIFRHDRLRFRLFVDALEDS | 1.55
FGEDGIFRHDYLRFRDFVDALEDS | 2.35
FGEDGIFRHDCLRFRDFVDALEDS | 2.73
FGEDGIFRHDFLRFRDFVDALEDS | 2.5
FGEDGIFRHDSLRFRDFVDALEDS | 2.73
FGEDGIFRHDELRFRDFVDALEDS | 3.36
FGEDGIFRHDNLRFRDFVDALEDS | 3.09
FGEDGIFRHDGLRFRDFVDALEDS | 3.12
FGEDGIFRHDMLRFRDFVDALEDS | 2.44

Variant | protein stability index
FGEDGIFRHDPLRFRDFVDALEDS | 3.13
FGEWGIFRHDRLRFRDFVDALEDS | 1.72
FGEPGIFRHDRLRFRDFVDALEDS | 1.94
FGEVGIFRHDRLRFRDFVDALEDS | 2.76
FGEHGIFRHDRLRFRDFVDALEDS | 1.89
FGETGIFRHDRLRFRDFVDALEDS | 2.24
FGEGGIFRHDRLRFRDFVDALEDS | 1.17
FGEDGIFRHDRLRFRDHVDALEDS | 3.25
FGEDGIFRHDRLRFRDVVDALEDS | 3.38
FGEDGIFRHDRLRFRDEVDALEDS | 3.98
FGEDGIFRHDRLRFRDTVDALEDS | 3.61
FGEDGIFRHDRLRFRDRVDALEDS | 3.69
FGEDGIFRHDRLRFRDSVDALEDS | 3.69
FGEDGIFRHDRLRFRDMVDALEDS | 3.38
FGEDGIFRHDRLRFRDFADALEDS | 2.73
FGEDGIFRHDRLRFRDFTDALEDS | 3.27
FGEDGIFRHDRLRFRDFWDALEDS | 2.07
FGEDGIFRHDRLRFRDFMDALEDS | 2.87
FGEDGIFRHDRLRFRDFSDALEDS | 3.11
FGEDGIFRHIRLRFRDFVDALEDS | 1.67
FGEDGIFRHHRLRFRDFVDALEDS | 2.39
FGEDGIFRHWRLRFRDFVDALEDS | 1.74
FGEDGIFRHGRLRFRDFVDALEDS | 2.33
FGEDGIFRHCRLRFRDFVDALEDS | 1.85
FGEDGIFRHMRLRFRDFVDALEDS | 2.19
FGEDGIFRHRRLRFRDFVDALEDS | 2.15

Variant | protein stability index
FGEDGIFRHERLRFRDFVDALEDS | 2.63
NGEDGIFRHDRLRFRDFVDALEDS | 3.81
SGEDGIFRHDRLRFRDFVDALEDS | 3.74
QGEDGIFRHDRLRFRDFVDALEDS | 4.12
DGEDGIFRHDRLRFRDFVDALEDS | 4.29
TGEDGIFRHDRLRFRDFVDALEDS | 3.08
AGEDGIFRHDRLRFRDFVDALEDS | 4.02
FAEDGIFRHDRLRFRDFVDALEDS | 1.63
FMEDGIFRHDRLRFRDFVDALEDS | 2.91
FLEDGIFRHDRLRFRDFVDALEDS | 2.96
FEEDGIFRHDRLRFRDFVDALEDS | 3.73
FPEDGIFRHDRLRFRDFVDALEDS | 2.61
FFEDGIFRHDRLRFRDFVDALEDS | 2.75
FDEDGIFRHDRLRFRDFVDALEDS | 3.36
FREDGIFRHDRLRFRDFVDALEDS | 2.69
FGEDGEFRHDRLRFRDFVDALEDS | 4.52
FGEDGNFRHDRLRFRDFVDALEDS | 3.46
FGEDGVFRHDRLRFRDFVDALEDS | 2.76
FGEDGCFRHDRLRFRDFVDALEDS | 2.33
FGEDGIFRHDRCRFRDFVDALEDS | 2.74
FGEDGIFRHDRSRFRDFVDALEDS | 2.55
FGEDGIFRHDRDRFRDFVDALEDS | 3.38
FGEDGIFRHDRWRFRDFVDALEDS | 2.7
FGEDGIFRHDRIRFRDFVDALEDS | 3.05

— the supplement of paper PMC10567573
